In patent US20190100588A1:

Biological target: Pep1/Pep2
Experiment: ELISA, coated peptide

Row | ELISA O.D. [O.D.] | Binder
1 | 0.102 | antibody 617 (antibody, V domains shown) VH: QVQLQLPGAELVKPGASVKVSCKASAYTFTSYWMHWVKQRPGQGLEWIGRIHPSDSDTNYNQNFKGKATLTVDKSSNTAYMQLSSLTSEDSAVYYCATGFSFWGQGTLVTVSA VL: DIVMTQSHKFMSTSVGDRVSITCKASQDVSTTVAWYQQKPGQSPKLLIYSASYRYTGVPDRFTGSGSGTDFTFTISSVQAEDLAVYYCQQHYSTRPTFGGGTKLEIK
2 | 0.069 | antibody 616 (antibody, V domains shown) VH: QIHLVQSGPELKKPGETVRISCKASGYTFTTYGMSWVKQAPGKALKWMGWINTYSGVPTYADDFKGRFAFSLETSASTAYLQINNLKNEDTATYFCTREGSTMVTRYYFDYWGQGTTLTVSS VL: DIVMTQAAPSVPVTPGESVSISCRSSKSLLHSNGNTYLYWFLQRPGQSPQLLIYRMSNLASGVPDRFSGSGSGTAFTLRISRVEAEDVGVYHCMQHLESPYTFGGGTTLEIK
3 | 0.064 | antibody 619 (antibody, V domains shown) VH: QIQLVQSGPELKKPGETVKISCKASGYTFTTYGMSWVKQAPGKGLKWMGWINTYSGVPTYADDFKGRFAFSLETSASTAYLQINNLKNEDTATYFCAREGSTMVTRYYFDYWGQGTTLTVSS VL: DIVMTQAAPSVPVTPGESVSISCRSSKSLLHSNGNTYLYWFLQRPGQSPQVLIYRMSNLASGVPDRFSGSGSGTAFTLRISRVEAEDVGVYYCMQHLESPYTFGGGTKLEIK
4 | 0.098 | antibody 623 (antibody, V domains shown) VH: QIQLVQSGPELKKPGETVKISCKASGYTFTTYGMSWVKQAPGKGLKWMGWINTYSGVPTYADDFKGRFAFSLETSASTAYLQINNLKNEDTATFFCAREGSTMVTRYYFDYWGQGTTLTVSS VL: DIVMTQAAPSVPVTPGESVSISCRSSKSLLHSNGNTYLYWFLQRPGQSPQLLIYRMSNLASGVPDRFSGSGSGTAFTLRISRVEAEDVGVYYCMQHLEYPSTFGGGTKLEIK
